Where two headings read alike, the source gives them in different places.
T1: His6-IC3 (third intracellular loop of the dopamine D2S receptor, R217-Q345) (UniProt P61169-2 217-345)
T1 sequence (looked up): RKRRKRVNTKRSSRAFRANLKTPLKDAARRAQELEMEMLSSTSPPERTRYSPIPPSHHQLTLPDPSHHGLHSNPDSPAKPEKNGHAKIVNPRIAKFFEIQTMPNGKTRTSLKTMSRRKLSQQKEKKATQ

B1: IC3-C58 (domain or fragment, UniProt P61169-2 288-345, looked up)
chain: SNPDSPAKPEKNGHAKIVNPRIAKFFEIQTMPNGKTRTSLKTMSRRKLSQQKEKKATQ
B2: S100B (natural protein)
chain: SELEKAMVALIDVFHQYSGREGDKHKLKKSELKELINNELSHFLEEIKEQEVVDKVMETLDNDGDGECDFQEFMAFVAMVTTACHEFFEHE

How the values were obtained:
S100B [1] = target: B2; assay: NMR titration
S100B [2] = target: B2; assay: NMR titration; remark: listed apart in the source
[3] = target: T1, His6-IC3 (third intracellular loop of …); assay: pull-down

Row | Kd (S100B [1]) [µM] | Kd (S100B [2]) [µM] | binding result [3] | Binder
1 | 1 ± 1 | 274 ± 58 |  | B1
2 |  |  | binds | B2

From article PMC3196243 (Biochemistry, 2011)
